Laboratory results reported in paper PMC7374715, “Conservation of Cdc14 phosphatase specificity in plant fungal pathogens: implications for antifungal development” (Scientific Reports, 2020).

Legend:
[1] = tested on: Cc1cc(=O)oc2c(F)c(OP(=O)(O)O)c(F)cc12; experiment: purified protein, by the assay type
[2] = tested on: O=[N+]([O-])c1ccc(OP(=O)(O)O)cc1; experiment: purified protein, by the assay type
[3] = other: DiFMUP, 0.5 nM enzyme, pH 7.5, 30 °C, mean of 3 ± SD
[4] = other: pNPP, 25 mM HEPES pH 7.5, 30 °C, mean of 3 ± SD

Substance | Km [1, 3] [mM] | kcat [1, 3] [s⁻¹] | kcat/Km [1, 3] [M⁻¹ s⁻¹] | Km [2, 4] [mM] | kcat [2, 4] [s⁻¹] | kcat/Km [2, 4] [M⁻¹ s⁻¹] | Km ([1]; pH 7.5, 30.0 °C) [mM] | Km ([2]; pH 7.5, 30.0 °C) [mM]
CgCdc14 (Colletotrichum gloeosporioides) | 0.078 ± 0.012 | 7 | 86000 ± 6100 | 30 ± 4 | 0.6 ± 0.1 | 20 ± 2 | – | –
MoCdc14 (Pyricularia oryzae 70-15) | – | – | – | – | – | – | 0.044 ± 0.011 | 25 ± 1
